What was measured:
[1] = biological target: T1, Zika virus envelope protein (Zika virus, UniProt A0A024B7W1 291-694); assay: EMSA (8% TBE-PAGE); Kd slightly lower than truncated aptamer, value not given; […], aptamer 3 nM-1 uM, […]; binding buffer not stated ([…], read in 1 M KCl pH 7.; settings: protein: commercial; stem-loops (mfold prediction)
[2] = biological target: T1, Zika virus envelope protein; assay: bead-based fluorescence binding assay; protein on magnetic beads; Bead assay: room temperature, 1 h, envelope protein 0.15 mg/mL on magnetic beads, aptamer 3 nM-1 uM, DIW wash; binding buffer not stated (folding predicted at 140 mM Na+, 5 mM Mg2+). Sensor: ACEF 10 min, read in 1 M KCl pH 7.; settings: protein: commercial; label: 5' 6-FAM; stem-loops (mfold prediction)
[3] = biological target: myoglobin (horse, UniProt P68082 2-154); assay: pulse voltammetry biosensor; no significant reactivity; Bead assay: room temperature, 1 h, envelope protein 0.15 mg/mL on magnetic beads, aptamer 3 nM-1 uM, DIW wash; binding buffer not stated (folding predicted at 140 mM Na+, 5 mM Mg2+). Sensor: ACEF 10 min, read in 1 M KCl pH 7.; settings: protein: commercial; stem-loops (mfold prediction)
Chain of myoglobin (P68082 2-154): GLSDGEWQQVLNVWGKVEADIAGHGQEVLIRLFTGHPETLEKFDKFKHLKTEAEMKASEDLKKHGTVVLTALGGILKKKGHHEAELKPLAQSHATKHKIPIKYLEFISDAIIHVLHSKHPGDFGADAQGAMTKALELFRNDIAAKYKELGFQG

[4] = biological target: hemoglobin (horse, UniProt P01958;P02062 2-142;1-146); assay: as above; settings: protein: commercial; chain copies: 2;2; stem-loops (mfold prediction)
Chain of hemoglobin (P01958 2-142, chain 1 of 2): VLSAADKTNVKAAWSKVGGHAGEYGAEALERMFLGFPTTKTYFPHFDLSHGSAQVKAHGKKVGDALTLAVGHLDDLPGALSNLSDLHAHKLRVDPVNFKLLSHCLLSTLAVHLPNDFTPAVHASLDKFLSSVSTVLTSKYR
Chain of hemoglobin (P02062 whole entry, chain 2 of 2): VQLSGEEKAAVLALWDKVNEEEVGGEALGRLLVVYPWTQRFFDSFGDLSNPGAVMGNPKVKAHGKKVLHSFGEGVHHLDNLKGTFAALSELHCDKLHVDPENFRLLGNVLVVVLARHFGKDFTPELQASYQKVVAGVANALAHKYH

[5] = biological target: fibrinogen (UniProt P02671;P02675;P02679 20-629;31-491;27-453); assay: as above; settings: protein: commercial; chain copies: 2;2;2; stem-loops (mfold prediction)
Chain of fibrinogen (P02671 20-629, chain 1 of 3): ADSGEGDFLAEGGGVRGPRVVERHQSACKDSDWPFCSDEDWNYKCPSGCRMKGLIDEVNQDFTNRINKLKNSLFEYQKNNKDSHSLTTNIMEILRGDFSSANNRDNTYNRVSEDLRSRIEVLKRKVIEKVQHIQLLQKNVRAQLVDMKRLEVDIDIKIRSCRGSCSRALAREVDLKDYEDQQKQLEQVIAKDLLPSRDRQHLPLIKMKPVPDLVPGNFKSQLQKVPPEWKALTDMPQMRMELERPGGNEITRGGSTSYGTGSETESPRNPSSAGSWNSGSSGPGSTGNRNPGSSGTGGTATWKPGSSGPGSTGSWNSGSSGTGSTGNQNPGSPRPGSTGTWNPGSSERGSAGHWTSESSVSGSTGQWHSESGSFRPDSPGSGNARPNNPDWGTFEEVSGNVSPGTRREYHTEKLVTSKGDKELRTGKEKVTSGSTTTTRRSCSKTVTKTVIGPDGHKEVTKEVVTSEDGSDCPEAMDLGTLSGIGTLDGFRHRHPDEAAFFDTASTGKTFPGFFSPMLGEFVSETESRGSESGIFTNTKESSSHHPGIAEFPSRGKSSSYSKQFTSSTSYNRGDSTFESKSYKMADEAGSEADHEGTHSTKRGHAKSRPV
Chain of fibrinogen (P02675 31-491, chain 2 of 3): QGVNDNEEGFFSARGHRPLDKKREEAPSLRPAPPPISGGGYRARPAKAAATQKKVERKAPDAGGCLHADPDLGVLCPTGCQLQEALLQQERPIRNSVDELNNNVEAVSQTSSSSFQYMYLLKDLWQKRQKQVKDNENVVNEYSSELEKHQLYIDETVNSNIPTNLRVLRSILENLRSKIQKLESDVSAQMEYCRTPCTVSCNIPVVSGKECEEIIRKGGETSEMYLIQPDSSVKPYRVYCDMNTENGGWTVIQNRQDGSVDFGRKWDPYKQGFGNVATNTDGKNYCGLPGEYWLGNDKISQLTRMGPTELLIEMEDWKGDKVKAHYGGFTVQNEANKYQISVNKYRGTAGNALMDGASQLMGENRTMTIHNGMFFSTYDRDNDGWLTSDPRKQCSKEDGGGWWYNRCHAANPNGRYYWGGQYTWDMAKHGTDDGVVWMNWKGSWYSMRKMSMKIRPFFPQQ
Chain of fibrinogen (P02679 27-453, chain 3 of 3): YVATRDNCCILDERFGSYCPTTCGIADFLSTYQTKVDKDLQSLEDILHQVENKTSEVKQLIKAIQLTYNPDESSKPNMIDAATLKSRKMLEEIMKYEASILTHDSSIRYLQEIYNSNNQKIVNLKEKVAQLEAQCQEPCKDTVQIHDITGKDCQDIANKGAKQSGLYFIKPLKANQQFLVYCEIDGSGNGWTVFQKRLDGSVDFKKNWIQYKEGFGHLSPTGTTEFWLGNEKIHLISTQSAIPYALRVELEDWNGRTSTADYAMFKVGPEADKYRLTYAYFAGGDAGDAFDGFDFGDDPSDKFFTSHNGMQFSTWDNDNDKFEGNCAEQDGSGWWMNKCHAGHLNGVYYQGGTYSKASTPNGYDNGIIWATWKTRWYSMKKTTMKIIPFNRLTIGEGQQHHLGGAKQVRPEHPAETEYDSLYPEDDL

[6] = biological target: T1, Zika virus envelope protein; assay: pulse voltammetry biosensor; ACEF; read in 1 M KCl pH 7; LOD 90.1 pM; Bead assay: room temperature, 1 h, envelope protein 0.15 mg/mL on magnetic beads, aptamer 3 nM-1 uM, DIW wash; binding buffer not stated (folding predicted at 140 mM Na+, 5 mM Mg2+). Sensor: ACEF 10 min, read in 1 M KCl pH 7.; settings: protein: commercial; stem-loops (mfold prediction)

B1: original Zika envelope aptamer (ZV apt) (structured_DNA)
DNA: TGACACCGTACCTGCTCTAGTGCGCACTGAACGATCCTGCGTCAAGTTCAAGGTTGTGAAGCACGCCAAGGGACTAT
[1]
  binding result: binds

## TGCGCACTGAACGATCCTGCGTCAAGTTCAAGGTTGTG (structured_DNA) [truncated Zika aptamer (T-ZV apt), 5'-FAM]
[2]
  Kd: 333 ± 60.3 nM

## TGCGCACTGAACGATCCTGCGTCAAGTTCAAGGTTGTG (structured_DNA, thiol (SH), end not stated) [truncated Zika aptamer (T-ZV apt), thiolated]
[3]
  binding result: no binding
[4]
  binding result: no binding
[5]
  binding result: no binding
[6]
  binding result: binds
